Reference: paper PMC11127761, “Development of a Neuropeptide Y-Sensitive Implantable Microelectrode for Continuous Measurements”

Target: Neuropeptide Y (NPY) (UniProt P01303 29-64)
Assay: electrochemical aptasensor (SWV, steady state); 1-1000 pg/mL; best NPY response of the three aptamers; aCSF pH 7.4 (composition by citation); SWV -0.4 to 0.0 V, 30 Hz; IPA 500 Hz in flow cell; assay temperature not stated
Conditions: protein: commercial; label: 3' methylene blue; immobilized on Pt via 5' thiol

B1: Aptamer 4.31 (ssDNA)
DNA: AGCAGCACAGAGGTCAGATGCAAACCACAGCCTGAGTGGTTAGCGTATGTCATTTACGGACCTATGCGTGCTACCGTGAA
modifications: 5' thiol C6 (disulfide reduced), 3' amino linker
  binding result: binds
